Source: US20210198368A1 (Novartis, published 2021)

T1: human CLL1 expressed on cancer cell lines HL60 and U937 (human, UniProt Q5QGZ9 1-265)
T1 sequence (looked up): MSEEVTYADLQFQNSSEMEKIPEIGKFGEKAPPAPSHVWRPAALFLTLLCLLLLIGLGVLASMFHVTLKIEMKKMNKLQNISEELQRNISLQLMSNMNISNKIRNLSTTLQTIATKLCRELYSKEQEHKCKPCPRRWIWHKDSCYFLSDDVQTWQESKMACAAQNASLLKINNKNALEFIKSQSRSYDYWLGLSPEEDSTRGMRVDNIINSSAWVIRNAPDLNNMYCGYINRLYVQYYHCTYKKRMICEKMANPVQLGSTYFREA


Biological target: T1, human CLL1 expressed on cancer cell …
Test: cell-based or functional assay

Row | EC50 (nM), NFAT U937 (T-cell activation, Jurkat NFAT luciferase reporter assay) [nM] | Binder | EC50 (nM), Killing HL60 (T-cell mediated killing of the CLL1-positive cancer cell line) [nM]
1 | 0.08 | CD3 × CLL1_11 (bispecific antibody) chain 1: QVQLVQSGGGVVQPGRSLRLSCKASGYTFTRYTMHWVRQAPGKGLEWIGYINPSRGYTNYNQKVKDRFTISRDNSKNTAFLQMDSLRPEDTGVYFCARYYDDHYSLDYWGQGTPVTVSSGGGGSGGGKSKKGGSGGGGSDIQMTQSPSSLSASVGDRVTITCSASSSVSYMNWYQQTPGKAPKRWIYDTSKLASGVPSRFSGSGSGTDYTFTISSLQPEDIATYYCQQWSSNPFTFGQGTKLQITGGGGSDKTHTCPPCPAPELLGGPSVFLFPPKPKDTLMISRTPEVTCVVVAVSHEDPEVKFNWYVDGVEVHNAKTKPREEQYNSTYRVVSVLTVLHQDWLNGKEYKCKVSNKALAAPIEKTISKAKGQPREPQVCTLPPSRDELTKNQVSLSCAVKGFYPSDIAVEWESNGQPENNYKTTPPVLDSDGSFFLVSKLTVDKSRWQQGNVFSCSVMHEALHNHYTQKSLSLSPGK chain 2: EVQLVQSGGGVVRSGRSLRLSCAASGFTFNSYGLHWVRQAPGKGLEWVALIEYDGSNKYYGDSVKGRFTISRDKSKSTLYLQMDNLRAEDTAVYYCAREGNEDLAFDIWGQGTLVTVSSGGGGSGGGGSGGGGSGGGGSEIVLTQSPSSLSASVGDRVTITCQASQFIKKNLNWYQHKPGKAPKLLIYDASSLQTGVPSRFSGNRSGTTFSFTISSLQPEDVATYYCQQHDNLPLTFGGGTKVEIKGGGGSGSDKTHTCPPCPAPELLGGPSVFLFPPKPKDTLMISRTPEVTCVVVAVSHEDPEVKFNWYVDGVEVHNAKTKPREEQYNSTYRVVSVLTVLHQDWLNGKEYKCKVSNKALAAPIEKTISKAKGQPREPQVYTLPPCRDELTKNQVSLWCLVKGFYPSDIAVEWESNGQPENNYKTTPPVLDSDGSFFLYSKLTVDKSRWQQGNVFSCSVMHEALHNHYTQKSLSLSPGK | 0.03
2 | 2.16 | CD3 × CLL1_13 (bispecific antibody) chain 1: QVQLVQSGGGVVQPGRSLRLSCKASGYTFTRYTMHWVRQAPGKGLEWIGYINPSRGYTNYNQKVKDRFTISRDNSKNTAFLQMDSLRPEDTGVYFCARYYDDHYSLDYWGQGTPVTVSSGGGGSGGGKSKKGGSGGGGSDIQMTQSPSSLSASVGDRVTITCSASSSVSYMNWYQQTPGKAPKRWIYDTSKLASGVPSRFSGSGSGTDYTFTISSLQPEDIATYYCQQWSSNPFTFGQGTKLQITGGGGSDKTHTCPPCPAPELLGGPSVFLFPPKPKDTLMISRTPEVTCVVVAVSHEDPEVKFNWYVDGVEVHNAKTKPREEQYNSTYRVVSVLTVLHQDWLNGKEYKCKVSNKALAAPIEKTISKAKGQPREPQVCTLPPSRDELTKNQVSLSCAVKGFYPSDIAVEWESNGQPENNYKTTPPVLDSDGSFFLVSKLTVDKSRWQQGNVFSCSVMHEALHNHYTQKSLSLSPGK chain 2: QVQLVQSGAEVKKSGASVKVSCKASGYPFTGYYIQWVRQAPGQGLEWMGWIDPNSGNTGYAQKFQGRVTMTRNTSISTAYMELSSLRSEDTAVYYCASDSYGYYYGMDVWGQGTLVTVSSGGGGSGGGGSGGGGSGGGGSDIQMTQSPSSLSASVGDRVTFTCRASQGISSALAWYQQKPGKPPKLLIYDASSLESGVPSRFSGSGSGTDFTLTISSLQPEDFATYYCQQFNNYPLTFGGGTKVEIKGGGGSGSDKTHTCPPCPAPELLGGPSVFLFPPKPKDTLMISRTPEVTCVVVAVSHEDPEVKFNWYVDGVEVHNAKTKPREEQYNSTYRVVSVLTVLHQDWLNGKEYKCKVSNKALAAPIEKTISKAKGQPREPQVYTLPPCRDELTKNQVSLWCLVKGFYPSDIAVEWESNGQPENNYKTTPPVLDSDGSFFLYSKLTVDKSRWQQGNVFSCSVMHEALHNHYTQKSLSLSPGK | 4.24

More lines, now with the values behind:

Row | Binder | EC50 (nM), NFAT U937 (T-cell activation, Jurkat NFAT luciferase reporter assay) [nM] | EC50 (nM), Killing HL60 (T-cell mediated killing of the CLL1-positive cancer cell line) [nM]
3 | CD3 × CLL1_09 (bispecific antibody) chain 1: QVQLVQSGGGVVQPGRSLRLSCKASGYTFTRYTMHWVRQAPGKGLEWIGYINPSRGYTNYNQKVKDRFTISRDNSKNTAFLQMDSLRPEDTGVYFCARYYDDHYSLDYWGQGTPVTVSSGGGGSGGGKSKKGGSGGGGSDIQMTQSPSSLSASVGDRVTITCSASSSVSYMNWYQQTPGKAPKRWIYDTSKLASGVPSRFSGSGSGTDYTFTISSLQPEDIATYYCQQWSSNPFTFGQGTKLQITGGGGSDKTHTCPPCPAPELLGGPSVFLFPPKPKDTLMISRTPEVTCVVVAVSHEDPEVKFNWYVDGVEVHNAKTKPREEQYNSTYRVVSVLTVLHQDWLNGKEYKCKVSNKALAAPIEKTISKAKGQPREPQVCTLPPSRDELTKNQVSLSCAVKGFYPSDIAVEWESNGQPENNYKTTPPVLDSDGSFFLVSKLTVDKSRWQQGNVFSCSVMHEALHNHYTQKSLSLSPGK chain 2: QVQLVQSGAEVKEPGASVKVSCKAPANTFSDHVMHWVRQAPGQRFEWMGYIHAANGGTHYSQKFQDRVTITRDTSANTVYMDLSSLRSEDTAVYYCARGGYNSDAFDIWGQGTMVTVSSGGGGSGGGGSGGGGSGGGGSDIVMTQSPSSVSASVGDRVTITCRASQDISSWLAWYQQKPGKAPKLLIYAASSLQSGVPSRFNGSGSGTDFTLTISSLQPEDFATYYCQQSYSTPLTFGGGTKVEIKGGGGSGSDKTHTCPPCPAPELLGGPSVFLFPPKPKDTLMISRTPEVTCVVVAVSHEDPEVKFNWYVDGVEVHNAKTKPREEQYNSTYRVVSVLTVLHQDWLNGKEYKCKVSNKALAAPIEKTISKAKGQPREPQVYTLPPCRDELTKNQVSLWCLVKGFYPSDIAVEWESNGQPENNYKTTPPVLDSDGSFFLYSKLTVDKSRWQQGNVFSCSVMHEALHNHYTQKSLSLSPGK | 1.74 | 0.36
4 | CD3 × CLL1_02 (bispecific antibody) chain 1: QVQLVQSGGGVVQPGRSLRLSCKASGYTFTRYTMHWVRQAPGKGLEWIGYINPSRGYTNYNQKVKDRFTISRDNSKNTAFLQMDSLRPEDTGVYFCARYYDDHYSLDYWGQGTPVTVSSGGGGSGGGKSKKGGSGGGGSDIQMTQSPSSLSASVGDRVTITCSASSSVSYMNWYQQTPGKAPKRWIYDTSKLASGVPSRFSGSGSGTDYTFTISSLQPEDIATYYCQQWSSNPFTFGQGTKLQITGGGGSDKTHTCPPCPAPELLGGPSVFLFPPKPKDTLMISRTPEVTCVVVAVSHEDPEVKFNWYVDGVEVHNAKTKPREEQYNSTYRVVSVLTVLHQDWLNGKEYKCKVSNKALAAPIEKTISKAKGQPREPQVCTLPPSRDELTKNQVSLSCAVKGFYPSDIAVEWESNGQPENNYKTTPPVLDSDGSFFLVSKLTVDKSRWQQGNVFSCSVMHEALHNHYTQKSLSLSPGK chain 2: EVQLVESGGGVVQPGGSLRLSCAASGFTFDDYAMHWVRQAPGKGLEWVSLISGDGGSTYYADSVKGRFTISRDNSKNTLYLQMNSLRVEDTAVYYCARVFDSYYMDVWGKGTTVTVSSGGGGSGGGGSGSGGSEIVLTQSPLSLPVTPGQPASISCRSSQSLVYTDGNTYLNWFQQRPGQSPRRLIYKVSNRDSGVPDRFSGSGSDTDFTLKISRVEAEDVGIYYCMQGTHWSFTFGQGTRLEIKGGGGSDKTHTCPPCPAPELLGGPSVFLFPPKPKDTLMISRTPEVTCVVVAVSHEDPEVKFNWYVDGVEVHNAKTKPREEQYNSTYRVVSVLTVLHQDWLNGKEYKCKVSNKALAAPIEKTISKAKGQPREPQVYTLPPCRDELTKNQVSLWCLVKGFYPSDIAVEWESNGQPENNYKTTPPVLDSDGSFFLYSKLTVDKSRWQQGNVFSCSVMHEALHNHYTQKSLSLSPGK | – | > 300
5 | CD3 × CLL1_06 (bispecific antibody) chain 1: QVQLVQSGGGVVQPGRSLRLSCKASGYTFTRYTMHWVRQAPGKGLEWIGYINPSRGYTNYNQKVKDRFTISRDNSKNTAFLQMDSLRPEDTGVYFCARYYDDHYSLDYWGQGTPVTVSSGGGGSGGGKSKKGGSGGGGSDIQMTQSPSSLSASVGDRVTITCSASSSVSYMNWYQQTPGKAPKRWIYDTSKLASGVPSRFSGSGSGTDYTFTISSLQPEDIATYYCQQWSSNPFTFGQGTKLQITGGGGSDKTHTCPPCPAPELLGGPSVFLFPPKPKDTLMISRTPEVTCVVVAVSHEDPEVKFNWYVDGVEVHNAKTKPREEQYNSTYRVVSVLTVLHQDWLNGKEYKCKVSNKALAAPIEKTISKAKGQPREPQVCTLPPSRDELTKNQVSLSCAVKGFYPSDIAVEWESNGQPENNYKTTPPVLDSDGSFFLVSKLTVDKSRWQQGNVFSCSVMHEALHNHYTQKSLSLSPGK chain 2: EVQLVESGGGLVKPGGSLRLSCAASGFTFSSYSMNWVRQAPGKGLEWVSSISSSSSYIYYADSVKGRFTISRDNAKNSLYLQMNSLRAEDTAVYYCARDPSSSGSYYMEDSYYYGMDVWGQGTTVTVSSGGGGSGGGGSGGGGSNFMLTQPHSVSESPGKTVTISCTGSSGSIASNYVQWYQQRPGSAPTTVIYEDNQRPSGVPDRFSGSIDSSSNSASLTISGLKTEDEADYYCQSYDSSNQVVFGGGTKLTVLGGGGSGSDKTHTCPPCPAPELLGGPSVFLFPPKPKDTLMISRTPEVTCVVVAVSHEDPEVKFNWYVDGVEVHNAKTKPREEQYNSTYRVVSVLTVLHQDWLNGKEYKCKVSNKALAAPIEKTISKAKGQPREPQVYTLPPCRDELTKNQVSLWCLVKGFYPSDIAVEWESNGQPENNYKTTPPVLDSDGSFFLYSKLTVDKSRWQQGNVFSCSVMHEALHNHYTQKSLSLSPGK | 0.96 | 1.27
6 | CD3 × CLL1_07 (bispecific antibody) chain 1: QVQLVQSGGGVVQPGRSLRLSCKASGYTFTRYTMHWVRQAPGKGLEWIGYINPSRGYTNYNQKVKDRFTISRDNSKNTAFLQMDSLRPEDTGVYFCARYYDDHYSLDYWGQGTPVTVSSGGGGSGGGKSKKGGSGGGGSDIQMTQSPSSLSASVGDRVTITCSASSSVSYMNWYQQTPGKAPKRWIYDTSKLASGVPSRFSGSGSGTDYTFTISSLQPEDIATYYCQQWSSNPFTFGQGTKLQITGGGGSDKTHTCPPCPAPELLGGPSVFLFPPKPKDTLMISRTPEVTCVVVAVSHEDPEVKFNWYVDGVEVHNAKTKPREEQYNSTYRVVSVLTVLHQDWLNGKEYKCKVSNKALAAPIEKTISKAKGQPREPQVCTLPPSRDELTKNQVSLSCAVKGFYPSDIAVEWESNGQPENNYKTTPPVLDSDGSFFLVSKLTVDKSRWQQGNVFSCSVMHEALHNHYTQKSLSLSPGK chain 2: QVQLVESGGGLVQPGGSLRLSCAASGFTFSSYWMSWVRQAPGKGLEWVANINEDGSAKFYVDSVKGRFTISRDNAKNSLYLQMNSLRAEDTAVYFCARDLRSGRYWGQGTLVTVSSGGGGSGGGGSGGGGSEIVLTQSPGTLSLSPGGRATLSCRASQSISGSFLAWYQQKPGQAPRLLIYGASSRATGIPDRFSGSGSGTDFTLTISRLEPEDFAVYYCQQYGSSPPTFGLGTKLEIKGGGGSDKTHTCPPCPAPELLGGPSVFLFPPKPKDTLMISRTPEVTCVVVAVSHEDPEVKFNWYVDGVEVHNAKTKPREEQYNSTYRVVSVLTVLHQDWLNGKEYKCKVSNKALAAPIEKTISKAKGQPREPQVYTLPPCRDELTKNQVSLWCLVKGFYPSDIAVEWESNGQPENNYKTTPPVLDSDGSFFLYSKLTVDKSRWQQGNVFSCSVMHEALHNHYTQKSLSLSPGK | – | 44.3
